Experimental data taken from patent US20230340147A1 (published 2023).
“And” between values parts separate entries of the source, which are not always exact repeats. Equal values may be shown once. Ends that are not written are not given here. * marks the point of attachment. G0F = octasaccharide N-glycan with alpha-1,6 core fucose (Formula Ib, linkages Formula Ic), CC(=O)N[C@@H]1[C@@H](O)[C@H](O[C@@H]2O[C@H](CO)[C@@H](O[C@@H]3O[C@H](CO[C@H]4O[C@H](CO)[C@@H](O)[C@H](O)[C@@H]4O[C@@H]4O[C@H](CO)[C@@H](O)[C@H](O)[C@H]4NC(C)=O)[C@@H](O)[C@H](O[C@H]4O[C@H](CO)[C@@H](O)[C@H](O)[C@@H]4O[C@@H]4O[C@H](CO)[C@@H](O)[C@H](O)[C@H]4NC(C)=O)[C@@H]3O)[C@H](O)[C@H]2NC(C)=O)[C@@H](CO[C@@H]2O[C@@H](C)[C@@H](O)[C@@H](O)[C@@H]2O)O[C@H]1*

T1: PSA(67-79)-G0F (human, also: Asn3 N-glycosylated with octasaccharide carrying alpha-1,6 core fucose (G0F))
T1 construct: Synthetic glycopeptide (3.9 kDa as SPR analyte), made on Sieber Amide resin; For the ELISAs a biotinylated form was used (glutamic acid derivative with a PEG3-biotin side chain at the N-terminus); also called PSA(67-79)-GOF; glycopeptide of Formula Ib
T1 peptide: IRN(G0F)KSVILLGRHS-NH2

T2: Fucosylated PSA disaccharide glycopeptide (DP) (human, not fully specified (residue 3, C-terminus))
T2 construct: also called glycopeptide of Formula IV
T2 peptide: IRNKSVILLGRHS


Key:
[1] = molecular target: PSA in formalin-fixed, paraffin-embedded (FFPE) prostate tissue (human) (UniProt P07288); experiment: IHC on FFPE tumor tissue array (Tour of Tumor), prostate core
PSA(67-79)-G0F [2] = molecular target: T1, PSA(67-79)-G0F; experiment: SPR, Biacore 8k, 37 C, antibody captured by anti-rabbit Fc, peptide as analyte
Experimental: (§1) 30 μg/ml of a Fcγ-fragment binding, polyclonal goat anti-Rabbit IgG (GARb-Fcγ, Jackson Laboratories) in 10 mM sodium acetate buffer (pH 4.5) was pre-concentrated in all 16 flow cells, and up to 10000 RU GARb-Fcγ were immobilized according to the manufacturer's instructions using EDC/NHS chemistry. Rabbit IgG antibody (150 kDa) containing rabbit B-cell primary cell culture supernatants were diluted three-fold with sample buffer and were captured for 2 min under a flow rate of 5 μl/min on 8 sample flow cells. The antibody Capture Level (CL) was quantified in response units (RU) for each antibody.
(§2) The non fucosylated peptide analyte PSA(67-79)-G2 (3.7 kDa) and the fucosylated peptide analyte PSA(67-79)-GOF (3.9 kDa) were diluted in sample buffer in concentration series of 0 nM (buffer), 11 nM, 33 nM, 100 nM, 300 nM, and 900 nM. The 100 nM analyte samples were injected twice as control. The analytes were injected at 30 μl/min for 3 min association time. After the association phase of the 900 nM analyte injection a report point (Binding Late) was set to quantify the signal response at antibody ligand saturation. The antibody antigen dissociation was monitored for 5 min. The GARb-Fcγ antibody capture system was regenerated by injection of 10 mM glycine pH 2 at 30 μl/min for 1 min, followed by two consecutive 1 min injections of 10 mM glycine pH 2.25 at 30 μl/min. Overlay plots of concentration dependent antigen binding were generated and kinetic rates were determined with the Biacore 8k evaluation software using a Langmuir fitting model with RMAX local. The antibody/antigen complex half-life was calculated in minutes according to the formula t_{1/2 diss}=ln(2)/60*kd.
Molar Ratio (MR) indicating antibody-antigen binding stoichiometry was also determined and calculated as MR=(analyte Binding Late (RU)/antibody Capture Level (RU)) x (MW(antibody)/MW (analyte)).

[3] = molecular target: T2, Fucosylated PSA disaccharide …; experiment: IHC peptide inhibition, antibody pre-incubated with peptide
Experimental: FIG. 8. Inhibition of anti-1,6fucPSA antibody binding by fucosylated PSA disaccharide glycopeptide (DP) in IHC analysis of FFPE samples of prostate adenocarcinoma samples. From top to bottom rows, exemplary anti-1,6fucPSA antibodies, FIG. 8A: 2E9, 3B10, and 3H6 at 2.5 μg/ml, 2.5 μg/ml, and 2.5 μg/ml, respectively; FIG. 8B: 13C5, 2H9, and 2C11 at 3 μg/ml, 2.5 μg/ml, and 1 μg/ml, respectively. For FIG. 8A and FIG. 8B, antibodies were pre-incubated with, from left to right columns, PBS buffer (control) or DP at 5×10⁻⁹ M, 5×10⁻⁸ M, 5×10⁻⁷ M, 5×10⁻⁶ M, or 5×10⁻⁵ M.
To verify that anti-1,6fucPSA antibodies recognize specifically and selectively the core-fucosylated PSA epitope, staining specificity was tested by peptide inhibition analysis.

PSA(67-79)-G0F [4] = molecular target: T1, PSA(67-79)-G0F; experiment: SPR, Biacore 8k, 37 C, antibody captured by anti-rabbit Fc, peptide as analyte, Langmuir fit
Experimental: as §1, §2

PSA(67-79)-G0F [5] = molecular target: T1, PSA(67-79)-G0F; experiment: SPR, Biacore 8k, 37 C, antibody captured by anti-rabbit Fc, 900 nM peptide injection
Experimental: as §1, §2

PSA(67-79)-G0F [6] = molecular target: T1, PSA(67-79)-G0F; experiment: Hit-ELISA, biotinylated peptide on streptavidin plate, supernatant of recombinant expression
Experimental: Subsequently Hit-ELISA (i.e. ELISAs testing the binding to the screening agents) was used to identify B-cells expressing antibodies having desired binding characteristics, i.e. binding the PSA(67-79)-GOF peptide and capable of discriminating from PSA(67-79)-G2 and Asn-GOF. Biotinylated screening agents PSA(67-79)-GOF, PSA(67-79)-G2 and Asn-GOF were immobilized on the surface of streptavidin-coated 96-well plates (Nunc) by incubation of 100 μl per well of 100 ng/ml solutions for 60 min at room temperature, respectively. The plates were washed and 30 μl of rabbit B-cell culture supernatant was transferred to each well and incubated for 1 h at room temperature. For the detection of antibodies bound to the screening agents, HRP-labeled F(ab′)₂ goat anti-rabbit Fcγ (Dianova) and ABTS substrate solution (Roche) were used according to manufacturer's instructions. 16 clones were identified that bound to PSA(67-79)-GOF and discriminated from the negative screening agents according to the selected cut-offs (OD>0.6 in positive screening and <0.6 in negative screening). The 16 clones were selected for subsequent molecular cloning and recombinant expression as also described in Seeber et al., PLoS One 9(2014), issue 2, e86184. For 15 out of the 16 clones the sequences could be successfully cloned and the sequences encoding VH and VL could be unambiguously determined. The Hit-ELISA using the screening agents was then repeated with the supernatant of the recombinant expression and the more stringent cut-off criteria (OD>1 for positive screening agent and OD at/below average background signal for negative screening agents) were fulfilled for all 15 previously selected clones for which unambiguous VH and VL sequences were retrieved.

Chain of PSA in formalin-fixed, paraffin-embedded (FFPE) prostate tissue (human) (P07288 25-261 limits assumed): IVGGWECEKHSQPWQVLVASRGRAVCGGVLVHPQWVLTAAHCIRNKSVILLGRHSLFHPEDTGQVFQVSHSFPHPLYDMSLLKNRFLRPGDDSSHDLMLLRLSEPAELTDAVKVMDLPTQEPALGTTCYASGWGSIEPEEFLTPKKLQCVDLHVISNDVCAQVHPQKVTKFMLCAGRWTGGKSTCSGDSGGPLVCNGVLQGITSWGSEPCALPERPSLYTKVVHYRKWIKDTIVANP

Molecule | IHC staining intensity [1] | MR (Molar Ratio) (PSA(67-79)-G0F [2]) | peptide concentration giving complete inhibition [3] [µM] | Kd (PSA(67-79)-G0F [4]) [nM] | koff (PSA(67-79)-G0F [4]) [s⁻¹] | kon (PSA(67-79)-G0F [4]) [M⁻¹ s⁻¹] | t/2diss (PSA(67-79)-G0F [4]) [min] | BL (Binding Late) (PSA(67-79)-G0F [5]) [RU] | OD (PSA(67-79)-G0F [6]) [OD]
2E9 (antibody, V domains shown, Rabbit monoclonal IgG (150 kDa); also called anti-1,6fucPSA antibody 2E9) VH: QSLEESGGDLVKPGASLTLTCTASGFSFSAGYDMCWVRQAPGKGLEWIACIYADGSGSTYYANWAKGRFTISLASSTTVTLQMTGLTAADTATYFCAREGADGPDYGYAAFSLWGPGTLVTVSS VL: DVVMTQTPASVEAAVGGTVTIKCQASQSISNYFSWYQQKPGQPPKLLIYKASTLASGVPSRFKGSGSGTEFTLTISDLECADAATYYCQSFYGSVTSDYGGFAFGGGTEVVVK | 3.5 + and 3.25 + | 2 | 5 | 0.6 | 0.00112 | 1.75e+06 | 10 | 27 | > 1
2H9 (antibody, V domains shown, Rabbit monoclonal IgG (150 kDa); also called anti-1,6fucPSA antibody 2H9) VH: QSLEESGGDLVKPGASLTLTCTASGFSFSSGYDMCWVRQAPGKGPEWIACIYADGSGSTYYASWAKGRFTISMTSSTTVTLQMTRLTAADTATYFCAREGADDPNYGYAALRLWGPGTLVTVSS VL: DIVMTQTPASVEAAVGGTVTIKCQASQSISNYLAWYQQKPGQPPKLLIYKTSTLASGVPSRFKGSGSGTEFTLTISDLECADAATYYCQSFYGSVSSDYGGFAFGGGTEVVVK | 3 + and 2.75 + | 2 | 5 | 2 | 0.00105 | 578000 | 11 | 54 | > 1
2C11 (antibody, V domains shown, Rabbit monoclonal IgG (150 kDa); also called anti-1,6fucPSA antibody 2C11) VH: QSLEESGGGLVKPGGTLTLTCKASGFSFGPGYDMCWVRQAPGKGLEWIACIYADGSDNTYYASWARGRFTISKTSSTTVTLQMTRLTAADTATYFCAREGADNPNYGYAALRLWGPGTLVTVSS VL: DIVMTQTPASVEAPVGGTVTIKCQASESISSYLAWYQQKPGQPPKLLIYKTSTLASGVPSRFKGSGSGTEFTLTISDLECANAATYYCQSFYGSVSSDYGGFAFGGGTEVVVK | 3 + and 2.5 + | 1 | 5 | 1 | 0.00078 | 779000 | 15 | 53 | > 1
3H6 (antibody, V domains shown, Rabbit monoclonal IgG (150 kDa); also called anti-1,6fucPSA antibody 3H6) VH: QSLEESGGDLVKPGASLTLTCTASGFSFSSGYDMCWVRQAPGKGLEWIACIYADGSGSTYYASWAKGRFTISKPSSTTVTLQMTRLTAADTATYFCAREGADGPDYGYAAFSLWGPGTLVTVSS VL: DIVMTQTPASVEAAVGGTVTIKCQASQTISSYFSWYQQKPGQPPKLLIYKASSLASGVPSRFKGSGSGTQFTLTISDLECADAATYYCQSFYGSVSSDVGGFAFGGGTEVVVK | 3.25 + and 3 + | 1 | 5 | 4 | 0.00536 | 1.52e+06 | 2 | 25 | > 1
3B10 (antibody, V domains shown, Rabbit monoclonal IgG (150 kDa); also called anti-1,6fucPSA antibody 3B10) VH: QSLEESGGGLVKPGGTLTLTCKASGFSFSSGYDMCWVRQAPGKGLEWIACIYADGSDNTYYASWAKGRFTISKTSSTTVTLQMTRLTAADTATYFCAREGADNPNYGYAALRLWGPGTLVTVSS VL: DIVMTQTPASVEAPVGGTVTIKCQATQSISSYLSWYQQKPGQPPKLLIYKTSTLASGVPSRFKGSGSGTEFTLTISDLECANAATYYCQSYYGSISSDYGGFAFGGGTEVVVK | 3 + and 2.5 + | 1 | 5 | 11 | 0.0121 | 1.14e+06 | 1 | 31 | > 1

Next, values leading:

IHC staining intensity [1] | MR (Molar Ratio) (PSA(67-79)-G0F [2]) | peptide concentration giving complete inhibition [3] [µM] | Kd (PSA(67-79)-G0F [4]) [nM] | koff (PSA(67-79)-G0F [4]) [s⁻¹] | kon (PSA(67-79)-G0F [4]) [M⁻¹ s⁻¹] | t/2diss (PSA(67-79)-G0F [4]) [min] | BL (Binding Late) (PSA(67-79)-G0F [5]) [RU] | OD (PSA(67-79)-G0F [6]) [OD] | Molecule
3 + and 3.5 + | – | – | – | – | – | – | – | – | anti-PSA mouse monoclonal antibody ER-PR8
3.5 + and 3 + | 2 | 5 | 0.4 | 0.00038 | 981000 | 31 | 29 | > 1 | 13C5 (antibody, V domains shown, Rabbit monoclonal IgG (150 kDa); also called anti-1,6fucPSA antibody 13C5) VH: QSLEESGGDLVKPGASLTLTCTASGFSFSSGYDMCWVRQAPGKGLEWIGCIYADGSGTTYYATWAKGRFTISNPSATTVTLQMTRLTAADTATYFCAREGADNPNYGYAALRLWGPGTLVTVSS VL: DIVMTQTPASVSGAVGGTITIKCQASQSISNYFSWYQQKPGQPPKLLIYKTSTLASGVPSRFKGSGSGTEFTLTISDLECADAATYYCQSFWGSGSSDYGGFAFGGGTEVVVK
